# In patent publication CN113549147A:
# Residue numbers refer to the chain shown, from its start.
# B1: 单克隆抗体6C8 (antibody, V domains shown)
# VH: EVQLQQSGPELVRPGASVRISCKASGYSFTGYYMHWVKQSHVKSLEWIGRINPHNGVPNYNQNFKDKATLTVDKSSTTAYMELHSLTSEDSAVYFCVSGSSDFDYWGRGATLTVS
# VL: DIQMTQSPSSLSASLGERVTLTCRASQEIGAFLGWLQQKPDGIIKRLIYAASVLDSGVPKRFSGSRSGSDYSLTISSLESEDFADYYCLQYVSFPRTFGGGTKLEIK
# B2: 单克隆抗体2B5 (antibody, V domains shown)
# VH: EVHLQQSGPELVKPGSSVKISCKASGYSFTGYYIHWVKQNHLKSLTWVGRINPHNGVADYDQILRGRAALTVDKSSTTAYLEFHSLTYEDSAVYFCVSGSNDFDYWGQGTPLTVS
# VL: B1 VL with T20S, G30R, A31S, I43T, A51V, V53N, V92I
# B3: 单克隆抗体4D6 (antibody, V domains shown)
# VH: EVQLQQSGPELVKPGASVKISCKASGYSFTGYYMHWVKQSHEKSLEWVGRINPHNGVADYNQILKGKAALTVDKSSTTAYMEFHSLTSEDSAVYYCVSGSSDFDYWGQGTPLTVS
# VL: B1 VL with T20S, G30R, A31S, I43T, A51V, V53N, V92I
# Target: 柯萨奇A6型病毒(CVA6)病毒颗粒抗原, 毒株TW-2007-00141 (Coxsackievirus A6 (CVA6), strain TW-2007-00141)
# Experiment: cell-based or functional assay
row,Binder,中和效价 (最大稀释倍数 (可以抑制50%以上细胞孔病变))
1,B1,4096
2,B2,4096
3,B3,8192
